The experiment concerns the target human TLR5 (human) (UniProt O60602).
UniProt O60602, sequence (O60602 21-858): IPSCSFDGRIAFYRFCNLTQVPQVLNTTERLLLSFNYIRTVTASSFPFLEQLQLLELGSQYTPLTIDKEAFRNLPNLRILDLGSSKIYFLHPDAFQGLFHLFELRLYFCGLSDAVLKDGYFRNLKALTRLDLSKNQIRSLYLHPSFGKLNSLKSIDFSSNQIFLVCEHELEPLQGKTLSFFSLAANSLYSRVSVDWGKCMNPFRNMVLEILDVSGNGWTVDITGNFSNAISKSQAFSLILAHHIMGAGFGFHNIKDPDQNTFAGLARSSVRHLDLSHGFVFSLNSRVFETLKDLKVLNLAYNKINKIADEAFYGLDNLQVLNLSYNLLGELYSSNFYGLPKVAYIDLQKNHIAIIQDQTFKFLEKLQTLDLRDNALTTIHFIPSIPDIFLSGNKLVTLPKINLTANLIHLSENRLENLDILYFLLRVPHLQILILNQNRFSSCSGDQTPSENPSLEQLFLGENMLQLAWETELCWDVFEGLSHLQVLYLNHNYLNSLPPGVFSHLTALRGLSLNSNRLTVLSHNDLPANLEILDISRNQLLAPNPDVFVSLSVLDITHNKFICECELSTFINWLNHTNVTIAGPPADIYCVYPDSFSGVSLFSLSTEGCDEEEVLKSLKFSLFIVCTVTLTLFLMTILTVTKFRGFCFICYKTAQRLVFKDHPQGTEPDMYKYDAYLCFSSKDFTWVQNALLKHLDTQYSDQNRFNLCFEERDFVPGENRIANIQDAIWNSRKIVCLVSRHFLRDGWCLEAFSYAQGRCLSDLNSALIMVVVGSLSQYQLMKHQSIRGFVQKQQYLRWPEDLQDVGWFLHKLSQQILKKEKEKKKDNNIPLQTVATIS

For the substance “Enterobacter sp. BIDMC93 host-encoded flagellin FliCH (natural protein)”, the TLR5-driven NF-κB activation (SEAP colorimetric reporter) in HEK293T-Blue-hTLR5 cells stimulated with an Ent strain expressing only FliCH (ΔfliCP-tldR-gRNA), against the WT lysogenic strain (fold of the WT lysogenic strain) is 2.

For the origin of these results see publication PMC13418256.
